From paper PMC7658359

Experiments:
[1] = biological target: Arabidopsis histone H2A (HTA1)-H2B (HTB1) dimer, Q9LD28;Q9LQQ4; assay: ITC
[2] = biological target: Arabidopsis histone H2A (HTA1)-H2B (HTB1) dimer (Arabidopsis thaliana) (UniProt Q9LD28); assay: ITC; MicroCal iTC200; OsChz1-C or its mutants injected into histone H2A-H2B or H2A.Z-H2B solutions; 19 injections of 2 μl
[3] = biological target: Arabidopsis histone variant H2A.Z (HTA9)-H2B (HTB1) dimer (Arabidopsis thaliana) (UniProt Q9C944); assay: as above

Sequence of Arabidopsis histone H2A (HTA1)-H2B (HTB1) dimer (Arabidopsis thaliana) (Q9LD28 whole entry, chain 1 of 2): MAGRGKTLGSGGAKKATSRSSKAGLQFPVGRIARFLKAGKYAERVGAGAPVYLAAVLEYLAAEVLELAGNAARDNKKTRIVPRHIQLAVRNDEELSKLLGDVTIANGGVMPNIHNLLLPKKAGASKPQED
Sequence of Arabidopsis histone H2A (HTA1)-H2B (HTB1) dimer (Arabidopsis thaliana) (Q9LQQ4 whole entry, chain 2 of 2, further chain): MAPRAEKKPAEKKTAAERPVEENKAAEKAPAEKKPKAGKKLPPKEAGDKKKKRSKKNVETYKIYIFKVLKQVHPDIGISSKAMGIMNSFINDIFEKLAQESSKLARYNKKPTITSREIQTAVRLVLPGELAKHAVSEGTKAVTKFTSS

Substance: OsChz1-C (OsChz1 338–471), wild type 3M
- Kd [1]: 146 nM

Substance: OsChz1-C (OsChz1 338–471), wild type 2M
- Kd [1]: 259 nM

Substance: OsChz1-C (OsChz1 338–471), wild type 1M
- Kd [1]: 150 nM

Substance: OsChz1-C (OsChz1 338–471), wild type (domain or fragment)
- Kd [2]: 9.8 nM
- Kd [3]: 64.1 nM
